Experimental data taken from patent US20240239864A1.

Molecular target: HLA-A2 (HLA-A*02:01) on cells (T2 cells; K562A2 cells) (human)
Test: T2 peptide-binding assay: T2 cells with peptide at 100 µg/mL overnight, surface HLA-A2 by flow cytometry (T2 only: 3.34E+05)
Details: remark: other sources report otherwise

B1: KKLC1 p52-60 peptide (HLA-A1 restricted control), Q5H943 52-60 (peptide, UniProt Q5H943 52-60, looked up)
peptide: NTDNNLAVY
In the case of B1, the Mean Fluorescence Intensity (surface HLA-A2) is reported as 305000.
